The results in this text go back to patent publication US20110236427.

Series [1] has as its system GST-NR2F6 fusion protein, full-length, S83A mutant.
Series [2] deals with GST-NR2F6 fusion protein, full-length, wild-type.
Series [3] has as its system GST-NR2F6 fusion protein, full-length, S89A mutant.

GST-NR2F6 fusion protein, full-length, S89A mutant, sequence (chain, as listed by the source S89A): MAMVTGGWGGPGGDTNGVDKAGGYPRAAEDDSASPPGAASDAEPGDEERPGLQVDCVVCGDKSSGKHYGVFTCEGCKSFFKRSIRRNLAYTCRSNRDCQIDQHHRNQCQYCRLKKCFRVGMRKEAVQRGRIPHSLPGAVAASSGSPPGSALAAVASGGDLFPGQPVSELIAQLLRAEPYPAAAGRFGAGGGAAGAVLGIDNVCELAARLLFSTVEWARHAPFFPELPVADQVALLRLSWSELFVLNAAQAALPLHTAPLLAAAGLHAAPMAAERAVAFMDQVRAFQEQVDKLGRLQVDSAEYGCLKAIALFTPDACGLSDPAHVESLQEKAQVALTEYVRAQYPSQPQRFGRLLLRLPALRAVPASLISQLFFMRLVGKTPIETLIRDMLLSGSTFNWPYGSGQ
GST-NR2F6 fusion protein, full-length, S83A mutant, sequence (chain, as listed by the source S83A): as the sequence (chain, as listed by the source S89A) above, with S83A, A89S counted along it
recombinant PKCtheta, sequence (Q04759 whole entry): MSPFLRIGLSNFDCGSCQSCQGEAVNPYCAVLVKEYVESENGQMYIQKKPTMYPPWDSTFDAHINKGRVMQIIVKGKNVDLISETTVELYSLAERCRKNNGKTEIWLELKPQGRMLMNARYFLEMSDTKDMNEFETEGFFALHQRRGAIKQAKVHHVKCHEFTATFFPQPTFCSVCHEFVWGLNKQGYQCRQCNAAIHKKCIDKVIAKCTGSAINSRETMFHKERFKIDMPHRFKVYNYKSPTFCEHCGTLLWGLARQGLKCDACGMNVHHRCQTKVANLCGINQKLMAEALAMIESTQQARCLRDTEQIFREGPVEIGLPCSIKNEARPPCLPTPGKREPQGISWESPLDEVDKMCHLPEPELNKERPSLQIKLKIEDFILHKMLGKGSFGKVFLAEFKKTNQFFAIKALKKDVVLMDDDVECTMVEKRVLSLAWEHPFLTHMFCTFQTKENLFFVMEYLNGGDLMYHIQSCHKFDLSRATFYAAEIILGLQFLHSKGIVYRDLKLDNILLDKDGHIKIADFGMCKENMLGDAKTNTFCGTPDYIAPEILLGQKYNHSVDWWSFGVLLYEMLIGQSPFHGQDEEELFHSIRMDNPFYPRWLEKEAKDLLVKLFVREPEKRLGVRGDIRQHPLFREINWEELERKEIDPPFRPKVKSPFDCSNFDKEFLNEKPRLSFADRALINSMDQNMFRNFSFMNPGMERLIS
GST-NR2F6 fusion protein, full-length, wild-type, sequence (chain, as listed by the source): as the sequence (chain, as listed by the source S89A) above, with A89S counted along it

Regarding recombinant PKCalpha, the “phosphorylation (32P incorporation), in vitro protein kinase assay” value (“phosphorylation (32P incorporation)” below) was “This phosphorylation was lost after the predicted phosphorylation site at Ser-83 (but not at Ser-89) was mutated in the full-length NR2F6 protein” in series [1]; “PKCalpha, delta and theta (but not PKCzeta or PKA) were able to phosphorylate recombinant NR2F6 in vitro” in series [2]; “(but not at Ser-89)” in series [3].

As for recombinant PKCtheta, the “phosphorylation (32P incorporation)” value in series [1] was “This phosphorylation was lost after the predicted phosphorylation site at Ser-83 (but not at Ser-89) was mutated in the full-length NR2F6 protein”; in series [2], “PKCalpha, delta and theta (but not PKCzeta or PKA) were able to phosphorylate recombinant NR2F6 in vitro”; in series [3], “(but not at Ser-89)”.

As for recombinant PKCdelta, the “phosphorylation (32P incorporation)” value in series [1] was “This phosphorylation was lost after the predicted phosphorylation site at Ser-83 (but not at Ser-89) was mutated in the full-length NR2F6 protein”; in series [2], “PKCalpha, delta and theta (but not PKCzeta or PKA) were able to phosphorylate recombinant NR2F6 in vitro”; in series [3], “(but not at Ser-89)”.

Take Protein kinase A (PKA): the “phosphorylation (32P incorporation)” value in series [2] was “(but not PKCzeta or PKA)”.
